We go through 34 variants from the RNAGym collection of RNA variant scans (doi:10.1093/nar/gkz1192).

B1: CPEB3 Ribozyme (parent)
chain: UAACAGGGGGCCACAGCAGAAGCGUUCACGUCGCAGCCCCUGUCAGAUUCUGGUGAAUCUGCGAAUUCUGCUGUAUAUCUC

In this data set the parent is B1. Put plainly: self-cleavage, relative activity (ratio to wild type); higher = more cleavage; in vitro, sequencing. Summed up:
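Relative activity was defined as the cleaved/total read fraction for a variant divided by the same fraction for the unmutated ribozyme. CPEB3 self-cleaving ribozyme libraries were made by rounds of error-prone PCR, barcoded, and transcribed in vitro with T7 RNA polymerase for 5 hours at 37°C, and cleavage ran through transcription plus a 15 min DNase I step before EDTA. Illumina sequencing of template-switched reverse transcripts gave the reads, and DNA sequencing mapped the barcodes. Averages come from three batches, using variants with at least 5 reads.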
Turning to UAACAGGGGGCCACAGCAGAAGCGUUCACGUCGCAGCCCCUGUCAGAUUCUGGUGAAUUUGCAAAUUCUGCUGUAUAUCUC [C59U G63A], the self-cleavage turned out to be 0.86.

For the variant UAACAGGGGGCCACAGCAGAAGCGUUCACGUCGCAGCCCCUGUCAGAUUCUGGUGAAUCAGCGAAUUCUGGUGUAUAUCUC [U60A C71G], the self-cleavage amounted to 0.35.

For the variant UAACAGGGGGCCACAGCAGAAGCGUUCACGUCGCAGCCCCUGUCAGAUUCUGGUGAAUCAGCGAAUUCUGUUGUAUAUCUC [U60A C71U], the self-cleavage came to 0.48.

With UAACAGGGGGCCACAGCAGAAGCGUUCACGUCGCAGCCCCUGUCAGAUUCUGGUGAAUCAGCGAAUUCUGAUGUAUAUCUC [U60A C71A], the self-cleavage was 0.39.

UAACAGGGGGCCACAGCAGAAGCGUUCACGUCGCAGCCCCUGUCAGAUUCUGGUGAAUUUGCGAAUUCUGCUGUACAUCUC [C59U U76C]: the self-cleavage amounted to 0.97.

On to UAACAGGGGGCCACAGCAGAAGCGUUCACGUCGCAGCCCCUGUCAGAUUCUGGUGAAUAUGCGAAUUCUGCUGUAUGUCUC [C59A A77G], for which the self-cleavage worked out at 0.31.

Regarding UAACAGGGGGCCACAGCAGAAGCGUUCACGUCGCAGCCCCUGUCAGAUUCUGGUGAAUCAGCGAAUUCUGCUGUUUAUCUC [U60A A75U], the self-cleavage was 0.62.

In the case of UAACAGGGGGCCACAGCAGAAGCGUUCACGUCGCAGCCCCUGUCAGAUUCUGGUGAAUCAGCGAAUUCUGCUGUGUAUCUC [U60A A75G], the self-cleavage stood at 0.46.

Regarding UAACAGGGGGCCACAGCAGAAGCGUUCACGUCGCAGCCCCUGUCAGAUUCUGGUGAAUGUGCGAAUUCUGCUGUAUACCUC [C59G U78C], the self-cleavage is 0.27.

As for UAACAGGGGGCCACAGCAGAAGCGUUCACGUCGCAGCCCCUGUCAGAUUCUGGUGAAUUUGCGAAUUCUGCUGUGUAUCUC [C59U A75G], the self-cleavage was determined as 0.81.

Regarding UAACAGGGGGCCACAGCAGAAGCGUUCACGUCGCAGCCCCUGUCAGAUUCUGGUGAAUAUGCGAAUUCUGCUGUAUAACUC [C59A U78A], the self-cleavage amounted to 0.22.

Turning to UAACAGGGGGCCACAGCAGAAGCGUUCACGUCGCAGCCCCUGUCAGAUUCUGGUGAAUAUGCGAAUUCUGCUGUAUACCUC [C59A U78C], the self-cleavage was 0.38.

As for UAACAGGGGGCCACAGCAGAAGCGUUCACGUCGCAGCCCCUGUCAGAUUCUGGUGAAUGUGCGAAUUCCGCUGUAUAUCUC [C59G U69C], the self-cleavage was 0.2.

Take UAACAGGGGGCCACAGCAGAAGCGUUCACGUCGCAGCCCCUGUCAGAUUCUGGUGAAUUUGCGAAUUCUGCUGUAUGUCUC [C59U A77G]: the self-cleavage was found to be 0.94.

For UAACAGGGGGCCACAGCAGAAGCGUUCACGUCGCAGCCCCUGUCAGAUUCUGGUGAAUUUGCGAAUUCUGCUAUAUAUCUC [C59U G73A], the self-cleavage is 1.45.

On to UAACAGGGGGCCACAGCAGAAGCGUUCACGUCGCAGCCCCUGUCAGAUUCUGGUGAAUGCGCGAAUUCUGCUGUAUAUCUC [C59G U60C], for which the self-cleavage was found to be 0.16.

Consider UAACAGGGGGCCACAGCAGAAGCGUUCACGUCGCAGCCCCUGUCAGAUUCUGGUGAAUGUGCGAAUUCUGCUGUAAAUCUC [C59G U76A], for which the self-cleavage was found to be 0.47.

With UAACAGGGGGCCACAGCAGAAGCGUUCACGUCGCAGCCCCUGUCAGAUUCUGGUGAAUAUGCGAAUUCUGCUUUAUAUCUC [C59A G73U], the self-cleavage is 1.11.

As for UAACAGGGGGCCACAGCAGAAGCGUUCACGUCGCAGCCCCUGUCAGAUUCUGGUGAAUGUGCGAAUUCUGCUGAAUAUCUC [C59G U74A], the self-cleavage came out at 0.37.

UAACAGGGGGCCACAGCAGAAGCGUUCACGUCGCAGCCCCUGUCAGAUUCUGGUGAAUUUGCGAAUUCUGCUGUAUACCUC [C59U U78C]: the self-cleavage worked out at 0.94.

As for UAACAGGGGGCCACAGCAGAAGCGUUCACGUCGCAGCCCCUGUCAGAUUCUGGUGAAUUUGCGAAUUCUGCUGUAUAACUC [C59U U78A], the self-cleavage worked out at 1.17.

Consider UAACAGGGGGCCACAGCAGAAGCGUUCACGUCGCAGCCCCUGUCAGAUUCUGGUGAAUAUGCGAAUUCUGCUGCAUAUCUC [C59A U74C], for which the self-cleavage worked out at 0.5.

As to UAACAGGGGGCCACAGCAGAAGCGUUCACGUCGCAGCCCCUGUCAGAUUCUGGUGAAUAUGCGAAUUCUGCUGGAUAUCUC [C59A U74G], the self-cleavage stood at 0.74.

Regarding UAACAGGGGGCCACAGCAGAAGCGUUCACGUCGCAGCCCCUGUCAGAUUCUGGUGAAUACGCGAAUUCUGCUGUAUAUCUC [C59A U60C], the self-cleavage amounted to 0.19.

As to UAACAGGGGGCCACAGCAGAAGCGUUCACGUCGCAGCCCCUGUCAGAUUCUGGUGAAUAAGCGAAUUCUGCUGUAUAUCUC [C59A U60A], the self-cleavage was 0.31.

As to UAACAGGGGGCCACAGCAGAAGCGUUCACGUCGCAGCCCCUGUCAGAUUCUGGUGAAUUCGCGAAUUCUGCUGUAUAUCUC [C59U U60C], the self-cleavage came to 0.34.

UAACAGGGGGCCACAGCAGAAGCGUUCACGUCGCAGCCCCUGUCAGAUUCUGGUGAAUUAGCGAAUUCUGCUGUAUAUCUC [C59U U60A]: the self-cleavage came out at 0.28.

For UAACAGGGGGCCACAGCAGAAGCGUUCACGUCGCAGCCCCUGUCAGAUUCUGGUGAAUCAGCGAUUUCUGCUGUAUAUCUC [U60A A65U], the self-cleavage amounted to 0.21.

With UAACAGGGGGCCACAGCAGAAGCGUUCACGUCGCAGCCCCUGUCAGAUUCUGGUGAAUCAGCGAGUUCUGCUGUAUAUCUC [U60A A65G], the self-cleavage was found to be 0.34.

As to UAACAGGGGGCCACAGCAGAAGCGUUCACGUCGCAGCCCCUGUCAGAUUCUGGUGAAUGUGCGAAUUCUGAUGUAUAUCUC [C59G C71A], the self-cleavage was found to be 0.24.

As for UAACAGGGGGCCACAGCAGAAGCGUUCACGUCGCAGCCCCUGUCAGAUUCUGGUGAAUAUGCGAAUUCAGCUGUAUAUCUC [C59A U69A], the self-cleavage worked out at 0.18.

For the variant UAACAGGGGGCCACAGCAGAAGCGUUCACGUCGCAGCCCCUGUCAGAUUCUGGUGAAUAUGCGAAUUCCGCUGUAUAUCUC [C59A U69C], the self-cleavage amounted to 0.23.

UAACAGGGGGCCACAGCAGAAGCGUUCACGUCGCAGCCCCUGUCAGAUUCUGGUGAAUUUGCGAAUUCUGCUGUAUAUCUC [C59U]: the self-cleavage came out at 0.95.

As to UAACAGGGGGCCACAGCAGAAGCGUUCACGUCGCAGCCCCUGUCAGAUUCUGGUGAAUGUGCGAAUUCUGCUGUAUAUCUC [C59G], the self-cleavage stood at 0.32.
